Data on 3 substances can be found in US20260207779.

For this data set, the system named is TALE-TadA8e(V106W) (Escherichia coli). Put plainly: cell_activity. The settings on record: paired TALE-TadA8e(V106W) without nickase, value is the maximum over three loci.

The substance MT-ND1 target yielded an activity of under 0.39%.
Still for that read-out and setting: the result for MT-ND4 target reads under 0.39%.
MT-RNR2 target: for the setting “barely above sequencing error”, the activity was under 0.39%.
